The results in this text go back to patent US20130315910A1 (Xencor, published 2013).

Broadly, the Kd is the free concentration of one partner at which half of the binding sites on the other are occupied at equilibrium, for simple one-to-one binding. Low values mean a tighter complex, high ones a looser complex.

Numbering of substitutions follows the chain as printed. Names may count otherwise.

The chains are these.
T1: human FcγRIIb receptor protein (R&D Systems) (human, UniProt P31994 46-217)
T1 construct: Bought protein injected over captured antibody in Biacore; also called CD32b
T1 sequence (looked up): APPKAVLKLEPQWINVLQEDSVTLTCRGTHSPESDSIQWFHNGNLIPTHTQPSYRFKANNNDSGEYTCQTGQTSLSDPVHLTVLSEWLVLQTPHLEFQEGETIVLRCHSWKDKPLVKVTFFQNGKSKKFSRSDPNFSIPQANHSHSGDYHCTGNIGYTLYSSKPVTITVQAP

T2: human FcγRIIa (131R), His- and GST-tagged (human, UniProt P12318 34-217)
T2 construct: Expressed in HEK293T cells, purified by nickel chromatography; also called R131 FcγRIIa; not shown: 6xHis and GST tags of the pTT5 vector
T2 sequence (looked up): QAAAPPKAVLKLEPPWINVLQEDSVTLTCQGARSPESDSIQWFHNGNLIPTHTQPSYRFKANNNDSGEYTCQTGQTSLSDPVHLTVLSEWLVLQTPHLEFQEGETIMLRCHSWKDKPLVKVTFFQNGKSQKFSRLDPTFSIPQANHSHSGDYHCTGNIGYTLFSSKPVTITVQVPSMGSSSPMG

T3: human FcγRIIa (131H), His- and GST-tagged (human, UniProt P12318 34-217)
T3 construct: also called H131 FcγRIIa; HIIa; not shown: 6xHis and GST tags of the pTT5 vector
T3 sequence (looked up): T2 sequence (looked up) with R134H

T4: mFcγRIIb (Mus musculus, UniProt P08101)
T4 construct: extracellular region, C-terminal His- and GST-tag; also called mouse FcγRII
T4 sequence (receptor extracellular region, looked up): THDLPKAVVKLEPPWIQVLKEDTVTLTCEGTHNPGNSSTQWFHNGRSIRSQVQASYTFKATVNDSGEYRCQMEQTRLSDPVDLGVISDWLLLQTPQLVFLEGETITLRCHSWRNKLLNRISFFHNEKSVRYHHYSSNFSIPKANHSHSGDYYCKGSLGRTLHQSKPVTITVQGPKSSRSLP

T5: cynoFcγRIIb (Macaca fascicularis, UniProt A0A140HDP4)
T5 construct: extracellular region, C-terminal His- and GST-tag; also called cynomolgus monkey FcγRIIb
T5 sequence (receptor extracellular region): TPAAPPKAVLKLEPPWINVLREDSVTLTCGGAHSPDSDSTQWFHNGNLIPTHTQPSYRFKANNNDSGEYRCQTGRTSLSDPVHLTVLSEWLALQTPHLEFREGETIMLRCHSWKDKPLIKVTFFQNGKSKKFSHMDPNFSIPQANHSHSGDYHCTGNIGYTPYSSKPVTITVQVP

B1: G236D/S239D/S267E (antibody, human IgG1, kappa)
heavy: EVQLVESGGGLVKPGGSLKLSCAASGYTFTSYVMHWVRQAPGKGLEWIGYINPYNDGTKYNEKFQGRVTISSDKSISTAYMELSSLRSEDTAMYYCARGTYYYGTRVFDYWGQGTLVTVSSASTKGPSVFPLAPSSKSTSGGTAALGCLVKDYFPEPVTVSWNSGALTSGVHTFPAVLQSSGLYSLSSVVTVPSSSLGTQTYICNVNHKPSNTKVDKKVEPKSCDKTHTCPPCPAPELLDGPDVFLFPPKPKDTLMISRTPEVTCVVVDVEHEDPEVKFNWYVDGVEVHNAKTKPREEQYNSTYRVVSVLTVLHQDWLNGKEYKCKVSNKALPAPIEKTISKAKGQPREPQVYTLPPSREEMTKNQVSLTCLVKGFYPSDIAVEWESNGQPENNYKTTPPVLDSDGSFFLYSKLTVDKSRWQQGNVFSCSVMHEALHNHYTQKSLSLSPGK
light: DIVMTQSPATLSLSPGERATLSCRSSKSLQNVNGNTYLYWFQQKPGQSPQLLIYRMSNLNSGVPDRFSGSGSGTEFTLTISSLEPEDFAVYYCMQHLEYPITFGAGTKLEIKRTVAAPSVFIFPPSDEQLKSGTASVVCLLNNFYPREAKVQWKVDNALQSGNSQESVTEQDSKDSTYSLSSTLTLSKADYEKHKVYACEVTHQGLSSPVTKSFNRGEC
notes: HuAM4G7 anti-CD19 IgG1 (m1) with these Fc substitutions, EU index; copies: 2 + 2
B2: G236T (antibody, human IgG1, kappa)
heavy: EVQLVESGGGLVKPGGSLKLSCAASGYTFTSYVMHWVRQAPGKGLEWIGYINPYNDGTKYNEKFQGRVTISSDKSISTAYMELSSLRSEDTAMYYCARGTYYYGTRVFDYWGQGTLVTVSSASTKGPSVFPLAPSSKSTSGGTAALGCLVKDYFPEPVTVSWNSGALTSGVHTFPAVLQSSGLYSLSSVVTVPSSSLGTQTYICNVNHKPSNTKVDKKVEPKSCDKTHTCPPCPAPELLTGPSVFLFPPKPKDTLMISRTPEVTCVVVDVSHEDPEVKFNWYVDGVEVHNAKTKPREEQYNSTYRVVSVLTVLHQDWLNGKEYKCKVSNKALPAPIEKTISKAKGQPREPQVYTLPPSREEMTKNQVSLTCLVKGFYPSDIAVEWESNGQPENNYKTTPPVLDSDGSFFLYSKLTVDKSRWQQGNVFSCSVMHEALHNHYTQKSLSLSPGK
light: B1 light
notes: HuAM4G7 anti-CD19 IgG1 (m1) with this Fc substitution, EU index; copies: 2 + 2
B3: G237D/S267E (antibody, human IgG1, kappa)
heavy: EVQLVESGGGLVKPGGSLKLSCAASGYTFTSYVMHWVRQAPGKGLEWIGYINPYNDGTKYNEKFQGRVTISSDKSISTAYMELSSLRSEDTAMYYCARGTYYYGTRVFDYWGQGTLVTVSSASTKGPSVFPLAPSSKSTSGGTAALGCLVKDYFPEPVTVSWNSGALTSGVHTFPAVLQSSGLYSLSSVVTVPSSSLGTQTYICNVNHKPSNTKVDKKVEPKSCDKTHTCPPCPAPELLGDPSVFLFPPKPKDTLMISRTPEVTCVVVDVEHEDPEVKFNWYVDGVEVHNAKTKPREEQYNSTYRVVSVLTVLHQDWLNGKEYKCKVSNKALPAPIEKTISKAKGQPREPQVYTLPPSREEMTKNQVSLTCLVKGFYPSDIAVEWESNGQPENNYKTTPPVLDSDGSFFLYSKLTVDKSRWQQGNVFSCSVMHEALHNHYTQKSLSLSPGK
light: B1 light
notes: as for B1
B4: G237N/S267E (antibody, human IgG1, kappa)
heavy: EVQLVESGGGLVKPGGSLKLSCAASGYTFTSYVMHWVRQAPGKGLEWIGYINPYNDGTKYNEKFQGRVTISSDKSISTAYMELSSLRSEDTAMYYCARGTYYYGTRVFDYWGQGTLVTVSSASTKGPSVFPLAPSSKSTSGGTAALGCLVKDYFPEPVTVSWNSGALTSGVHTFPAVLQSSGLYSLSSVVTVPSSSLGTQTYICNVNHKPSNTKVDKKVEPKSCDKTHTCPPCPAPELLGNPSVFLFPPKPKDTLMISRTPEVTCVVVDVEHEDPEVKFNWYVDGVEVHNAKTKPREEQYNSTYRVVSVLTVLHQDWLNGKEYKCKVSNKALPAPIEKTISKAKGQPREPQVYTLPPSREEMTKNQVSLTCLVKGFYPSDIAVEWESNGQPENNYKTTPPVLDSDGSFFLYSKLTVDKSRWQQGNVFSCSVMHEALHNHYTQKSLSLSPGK
light: B1 light
notes: as for B1
B5: L234E/S267E/L328F (antibody, human IgG1, kappa)
heavy: B1 heavy with L238E, D240G, D243S, L332F
light: B1 light
notes: as for B1
B6: L234E/S267E (antibody, human IgG1, kappa)
heavy: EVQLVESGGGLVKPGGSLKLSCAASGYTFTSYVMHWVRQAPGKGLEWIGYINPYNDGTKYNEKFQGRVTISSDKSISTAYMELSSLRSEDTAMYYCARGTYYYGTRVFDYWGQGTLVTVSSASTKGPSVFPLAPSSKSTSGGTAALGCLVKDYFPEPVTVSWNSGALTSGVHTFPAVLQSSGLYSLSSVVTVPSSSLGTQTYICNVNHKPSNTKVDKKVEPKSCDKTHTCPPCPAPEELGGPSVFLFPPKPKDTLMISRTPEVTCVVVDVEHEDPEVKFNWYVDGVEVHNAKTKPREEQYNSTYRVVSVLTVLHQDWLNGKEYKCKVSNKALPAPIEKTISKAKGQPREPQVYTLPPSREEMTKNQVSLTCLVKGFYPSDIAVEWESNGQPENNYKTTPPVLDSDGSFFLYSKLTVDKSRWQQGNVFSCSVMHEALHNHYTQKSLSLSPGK
light: B1 light
notes: as for B1
B7: S298M (antibody, human IgG1, kappa)
heavy: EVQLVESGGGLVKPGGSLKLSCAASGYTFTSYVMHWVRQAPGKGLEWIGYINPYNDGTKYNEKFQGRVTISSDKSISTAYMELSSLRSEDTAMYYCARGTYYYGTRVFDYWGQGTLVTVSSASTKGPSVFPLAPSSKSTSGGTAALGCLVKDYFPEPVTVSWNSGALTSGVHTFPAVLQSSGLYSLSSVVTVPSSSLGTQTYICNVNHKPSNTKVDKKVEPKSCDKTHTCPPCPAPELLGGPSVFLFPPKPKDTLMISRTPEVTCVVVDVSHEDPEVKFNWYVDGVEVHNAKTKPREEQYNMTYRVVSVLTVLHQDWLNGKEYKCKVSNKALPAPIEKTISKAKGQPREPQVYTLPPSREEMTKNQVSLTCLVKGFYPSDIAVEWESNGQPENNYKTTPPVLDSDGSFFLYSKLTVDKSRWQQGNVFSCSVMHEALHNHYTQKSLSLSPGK
light: B1 light
notes: as for B2
B8: L234W/S239E/S267E (antibody, human IgG1, kappa)
heavy: B1 heavy with L238W, D240G, D243E
light: B1 light
notes: as for B1
B9: L234W (antibody, human IgG1, kappa)
heavy: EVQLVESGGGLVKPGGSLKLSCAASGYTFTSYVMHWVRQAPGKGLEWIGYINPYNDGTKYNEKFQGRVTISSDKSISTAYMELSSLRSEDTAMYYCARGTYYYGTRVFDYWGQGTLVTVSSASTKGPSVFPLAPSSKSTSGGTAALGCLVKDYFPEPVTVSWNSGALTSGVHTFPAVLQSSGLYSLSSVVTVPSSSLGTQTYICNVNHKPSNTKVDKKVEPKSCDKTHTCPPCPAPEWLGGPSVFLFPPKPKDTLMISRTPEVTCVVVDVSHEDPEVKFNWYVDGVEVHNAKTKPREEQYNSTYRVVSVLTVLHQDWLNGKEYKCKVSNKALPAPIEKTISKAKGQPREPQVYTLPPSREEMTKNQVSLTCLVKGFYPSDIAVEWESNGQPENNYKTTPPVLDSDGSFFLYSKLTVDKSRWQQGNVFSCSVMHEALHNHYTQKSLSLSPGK
light: B1 light
notes: as for B2
B10: G236D/S267E/H268E (antibody, human IgG1, kappa)
heavy: B1 heavy with D243S, H272E
light: B1 light
notes: as for B1
B11: G236D/S267E/L328F (antibody, human IgG1, kappa)
heavy: B1 heavy with D243S, L332F
light: B1 light
notes: as for B1
B12: L328F (antibody, human IgG1, kappa)
heavy: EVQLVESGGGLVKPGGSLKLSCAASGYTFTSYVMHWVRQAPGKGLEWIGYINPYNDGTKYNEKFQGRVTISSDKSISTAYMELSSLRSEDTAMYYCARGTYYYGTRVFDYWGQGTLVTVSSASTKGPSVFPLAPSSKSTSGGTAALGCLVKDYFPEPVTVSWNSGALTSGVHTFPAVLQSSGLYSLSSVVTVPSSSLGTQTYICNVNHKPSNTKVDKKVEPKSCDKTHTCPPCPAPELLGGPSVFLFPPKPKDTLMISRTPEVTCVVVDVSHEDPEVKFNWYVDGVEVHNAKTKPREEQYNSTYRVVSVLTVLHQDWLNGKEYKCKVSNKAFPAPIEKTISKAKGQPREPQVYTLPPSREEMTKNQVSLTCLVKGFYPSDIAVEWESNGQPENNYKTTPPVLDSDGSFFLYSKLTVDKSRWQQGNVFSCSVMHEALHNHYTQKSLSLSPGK
light: B1 light
notes: as for B2

In the first test the target is T1, human FcγRIIb receptor protein (R&D …). In words: SPR. A general note: Surface plasmon resonance follows binding to a sensor surface in real time, without labels.
On to B1, for which the “Fold vs WT IgG1” value was 84.8 fold and the dissociation constant (Kd) came to 17.3 nM.
For B2, the “Fold vs WT IgG1” value was determined as 0.00225 fold and binding was characterised by a dissociation constant (Kd) of 652000 nM.
In the same order, the values of B3 are 17 fold and 86.1 nM.
As to B4, the “Fold vs WT IgG1” value is 40.5 fold and the Kd stood at 36.2 nM.
Take B5: the “Fold vs WT IgG1” value amounted to 195 fold and the Kd is 7.53 nM.
In the case of B6, the “Fold vs WT IgG1” value was found to be 15.1 fold and the Kd turned out to be 97 nM.
With B7, the binding result is on record as “no binding”.
For the molecule B8, the “Fold vs WT IgG1” value is 42.3 fold and the Kd was 34.7 nM.
B9 had a Kd of 1770 nM.
For the molecule B10, the “Fold vs WT IgG1” value came out at 110 fold and the Kd came out at 13.4 nM.
Regarding B11, the “Fold vs WT IgG1” value stood at 149 fold and the affinity, expressed as Kd, was 9.87 nM.
Regarding B12, binding was put at a Kd of 541 nM.

In a further test the target is T6, human FcγRI receptor protein (R&D Systems) (human, UniProt P12314 16-288).
T6 construct: also called soluble FcγRI; solFcγRI
T6 sequence (P12314 16-288 limits assumed): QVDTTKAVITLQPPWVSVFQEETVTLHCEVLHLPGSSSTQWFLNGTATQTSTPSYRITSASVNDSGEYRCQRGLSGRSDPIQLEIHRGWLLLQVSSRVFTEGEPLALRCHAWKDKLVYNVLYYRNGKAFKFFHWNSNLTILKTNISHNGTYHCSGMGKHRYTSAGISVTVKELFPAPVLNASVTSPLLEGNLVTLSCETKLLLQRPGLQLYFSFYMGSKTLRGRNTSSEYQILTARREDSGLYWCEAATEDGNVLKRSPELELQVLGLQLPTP
In words: SPR.
For B1, the “Fold vs WT IgG1” value came to 0.0685 fold and binding was characterised by a dissociation constant (Kd) of 4.81 nM.
In the same order, the values of B2 are 0.0157 fold and 21 nM.
In the same order, the values of B3 are 0.0874 fold and 3.77 nM.
For B4, in that order: 0.101 fold and 3.25 nM.
Consider B5, for which the “Fold vs WT IgG1” value turned out to be 0.0425 fold and the equilibrium dissociation constant (Kd) came to 7.75 nM.
With B6, the “Fold vs WT IgG1” value stood at 0.131 fold and the Kd was determined as 2.51 nM.
Consider B9, for which the dissociation constant (Kd) was found to be 10.5 nM.
B10: the “Fold vs WT IgG1” value came out at 0.0902 fold and the Kd is 3.65 nM.
For B11, in that order: 0.0736 fold and 4.48 nM.
Consider B12, for which binding was characterised by a dissociation constant (Kd) of 0.452 nM.

A further test has as its target T2, human FcγRIIa (131R), His- and …. In words: SPR.
In the case of B1, the “Fold vs WT IgG1” value is 26.7 fold and the dissociation constant Kd is 32.2 nM.
As to B2, the “Fold vs WT IgG1” value was 0.35 fold and the equilibrium dissociation constant (Kd) came to 2460 nM.
In the same order, the values of B3 are 13.6 fold and 63.1 nM.
For B4, in that order: 61.5 fold and 14 nM.
Turning to B5, the “Fold vs WT IgG1” value was found to be 174 fold and the Kd came to 4.93 nM.
For B6, in that order: 10.7 fold and 80.4 nM.
For B8, in that order: 98.5 fold and 8.72 nM.
In the same order, the values of B10 are 29.9 fold and 28.7 nM.
With B11, the “Fold vs WT IgG1” value was 59.9 fold and the Kd turned out to be 14.3 nM.
With B12, the Kd worked out at 166 nM.

In another test the target is T3, human FcγRIIa (131H), His- and …. In words: SPR.
On to B1, for which the “Fold vs WT IgG1” value is 0.217 fold and the Kd was 2980 nM.
As for B2, the “Fold vs WT IgG1” value was found to be 0.486 fold and the Kd came to 1330 nM.
Take B3: the binding result was “no binding”.
As for B5, the “Fold vs WT IgG1” value came out at 0.0725 fold and the Kd was found to be 8920 nM.
For B6, the binding result is given as “no binding”.
B9: the Kd came to 1160 nM.
Turning to B10, the “Fold vs WT IgG1” value came to 0.103 fold and the Kd came to 6300 nM.
In the same order, the values of B11 are 0.0301 fold and 21500 nM.

In a further test the target is T7, human FcγRIIIa (158V), His- and GST-tagged (human, UniProt P08637 17-208).
T7 construct: also called V158 FcγRIIIa; VIIIa; not shown: 6xHis and GST tags of the pTT5 vector
T7 sequence (P08637 17-208 F176V): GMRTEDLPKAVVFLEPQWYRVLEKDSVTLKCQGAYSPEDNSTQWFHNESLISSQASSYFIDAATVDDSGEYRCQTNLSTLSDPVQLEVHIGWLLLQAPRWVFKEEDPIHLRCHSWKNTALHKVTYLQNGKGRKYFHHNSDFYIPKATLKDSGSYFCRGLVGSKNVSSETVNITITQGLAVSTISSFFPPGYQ
As to the kind of experiment: SPR.
With B1, the binding result is on record as “no binding”.
With B2, the binding result is given as “no binding”.
Still for that read-out and setting: next, B3: “no binding”; B4: “no binding”.
As to B5, the binding result is listed as “no binding”.
As to B6, the binding result is recorded as “no binding”.
On to B9, for which the affinity, expressed as Kd, was 6590 nM.
Consider B10, for which the binding result is on record as “no binding”.
B11: the binding result is recorded as “no binding”.
B12 had a Kd of 58400 nM.

The next test deals with T4, mFcγRIIb. In words: SPR.
For B7, the “Fold vs WT IgG1 (Kd)” value came out at 0.549 fold.
Same read-out and setting: next, B8: 0.761 fold.

Another test concerns the target T5, cynoFcγRIIb. In words: SPR.
On to B7, for which the “Fold vs WT IgG1 (Kd)” value was 2.85 fold.
For B8, the “Fold vs WT IgG1 (Kd)” value was 2.25 fold.
